Data: IntAct's records for PubMed 24165923

Biological target: rspo1_human RSPO1 (UniProt Q2MKA7)
Sequence (Q2MKA7 whole entry): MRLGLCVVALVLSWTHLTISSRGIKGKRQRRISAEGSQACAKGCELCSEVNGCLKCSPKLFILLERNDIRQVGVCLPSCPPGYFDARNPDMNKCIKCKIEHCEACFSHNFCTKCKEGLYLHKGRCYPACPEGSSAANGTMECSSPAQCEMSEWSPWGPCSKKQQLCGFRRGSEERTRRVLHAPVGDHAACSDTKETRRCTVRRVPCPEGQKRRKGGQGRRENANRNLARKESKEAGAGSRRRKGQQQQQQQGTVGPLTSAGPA

effect of a mutation on the interaction: disrupting interaction
Substance: E3 ubiquitin-protein ligase ZNRF3 (Homo sapiens), Q9ULT6 P103A
